Data reported in US20210292393A1 (published 2021).

B1: antibody 537 (antibody, V domains shown)
VH: QVQLQQWGAGLLKPSETLSLTCAVYGGSFSGYYWSWIRQPPGKGLEWIGEINHSGSTNYNPSLKSRVTISVDTSKNQFSLKLSSVTAADTAVYYCARGLYYDMGGGFDYWGQGTLVTVSS
VL: not shown
B2: antibody 533 (antibody, V domains shown)
VH: GVQLVESGGVVVQPGGSLRLSCAASGFSFDDYTMHWVRQAPGKGLEWVSLVSWDGGTTYYTDSVKGRFTISRDNSKNSLYLQMNSLRTEDTALYFCAKDSGRIVPAATFDYWGQGTLVTVSS
VL: DIQMTQSSSSLSASVGDRVTITCRASQDISNYLAWFQQKPGKAPKSLIYAASSLQSGVPSKFSGSGSGTDFTLTISSLQPEDFATYYCQQYYTYPLTFGGGTKVEIK
B3: antibody 516 (antibody, V domains shown)
VH: QVELQQWGAGLLKPSETLSLTCAVYGGSFSGYYWSWIRQPPGKGLEWIGEINHSGSTNYNPSLKSRVTISIDTSKNQFSLKLSSVTAADTAVYYCARGTTVTTFFAPHWYFDLWGRGTLVTVSS
VL: QSALTQPASVSGSPGQSITISCTGTSSDVGGYNYVSWYQQHPGKAPKLMIYDVSNRPSGVSNRFSGSKSGNTASLTISGLQAEDEADYYCSSYTSSSTPYVFGTGTKVTVL
B4: antibody 522 (antibody, V domains shown)
VH: EVQLVESGGGLVQPGGSLRLSCAASGFNFSSYSMNWVRQAPGKGLEWVSYISSSSSTIYYADSVKGRFTISRDNAKNSLYLQMNSLRDEDTAVYYCARGPEWDIVVVQAENWFDPWGQGTLVTVSS
VL: SYELTQPPSVSVSPGQTARITCSGDALPKQYVYWYQQKPGQAPVLVIYKDSERPSGIPERFSGSSSGTTVTLTISGVQAEDEADYYCQSADSSGTYRGVFGGGTKLTVL
B5: antibody 543 (antibody, V domains shown)
VH: EVQLVESGGGLVQPGRSLRLSCAASGFTFHDYAMHWVRQAPGKGLEWVSGISWNSGSIGYADSVKGRFTISRDNAKNSLYLQMNSLRAEDTALYYCAKDTFGSSSWYRGDSYYYYGMDVWGQGTTVTVSS
VL: QSALTQPASVSGSPGQSITISCTGTSSDVGGYNYVSWYQQHPGKAPKLMIYEVSNRPSGVSNRFSGSKSGNTASLTISGLQAEDEADYYCSSYTSSSTQRYVVFGGGTKLTVL
B6: antibody 523 (antibody, V domains shown)
VH: EVQLVESGGVSVQPGGSLRLSCAASGFSFNTYDMHWVRQGTGKGLEWVSGIGTAGDTYYSDSVKGRCTISRDNAKNSLHLLVKSVRAADTAVYYCARGVGGIIDYWGQGTLVTVSS
VL: NFVLSQPHSVSESPGKTVTISCTGNSGSIATKYVQWFQQRPGSAPTTVIYEDNQRPSGVPDRFSGSSDSSSNSASLTISGLKTEDEAHYYCQSYHNRRWVFGGGTKLTVL
B7: antibody 541 (antibody, V domains shown)
VH: QVQLVQSGAEVKKPGASVKVSCKASGYTFTSYYVHWVRQAPGQSLEWMGVISPSTGSTTYAQNFQGRVTMTRDTSTTTVYMELSSLRSEDTAVYYCARDDYYDSTRYFDLWGRGTLVTVSS
VL: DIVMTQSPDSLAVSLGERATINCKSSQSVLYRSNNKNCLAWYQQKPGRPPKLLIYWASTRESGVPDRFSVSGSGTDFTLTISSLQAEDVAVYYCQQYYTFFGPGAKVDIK
B8: antibody 316 (antibody, V domains shown)
VH: QVHLVESGGGVVQPGRSLRLSCAASGFTLTAYAMHWVRQAPGKRLEWVALISYDGSVKKYADSVKGRITVSGDTSTNTLHLQMNSLRADDTAVYYCVRGGVSGPNSFDLWGQGTMVTVSS
VL: DVVMTQSPLSLPVTLGQPASMSCRSSQSLEYSDGNTYVNWFHQRPGQSPRRLIYKVSYRDSGVPDRFSGSGSGTDFTLQISRVEAEDVGIYYCMQGTHWPVTFGQGTKVEIK
B9: antibody 327 (antibody, V domains shown)
VH: QVQLVESGGGVVQPGRSLRLSCAASGFNLSNYAMHWVRQASGKGLEWVSLISYDGSIKYYTDSVKGRFTVSGDNSKNTLFLQMNSLRPDDSALYYCVRGGVSGPNSFDMWGQGTTVTVSS
VL: DVVMTQSPLSLPVTLGQPASISCRSSQSLVYSDGNTYVNWFQQRPGQSPRRLIYQVSIRASGVPDRFSGSGSGTDFALKISRVEAEDVGIYYCMQGTHWPVTFGQGTKVEIK
B10: antibody 320 (antibody, V domains shown)
VH: QVQLVQSGAEVKKPGASVKVSCKASGYTFTSYGISWVRQAPGQGLEWMGWISAYNGNTNYAQKLQGRVTMTTDTSTRTAYMELRSLRSDDTAVYYCARVGCYYDSSGYSCAENFQHWGQGTLVTVSS
VL: QSVLTQPPSVSGAPGQRVTISCTGSSSNIGAGYDVHWYQQLPGTAPKLLIYGNSNRPSGVPDRFSGSKSGTSASLAITGLQAEDEADYYCQSYDSSLSALFGGGTKLTVL
B11: antibody 323 (antibody, V domains shown)
VH: QVQLVQSGAEVKKPGASVKVSCKVSGYTLTELSMHWVRQAPGKGLEWMGGFDPEDGETIYAQKFQGRVTMTEDTSTDTAYMELSSLRSEDTAVYYCATSTIFAPGGWFDPWGQGTLVTVSS
VL: QSALTQPASVSGSPGQSITISCTGTSSDVGSYNLVSWYQQHPGKAPKLMIYEVSKRPSGVSNRFSGSKSGNTASLTISGLQAEDEADYYCCSYAGSTHYVFGTGTKVTVL
B12: antibody 326 (antibody, V domains shown)
VH: QITLKESGPTLVKPTQTLTLTCTFSGFSLNTSGVGVGWIRQPPGKALEWLSLIFWNDDKRYSPSLRSRLTITKDTSKNQVVLTMTNMDPVDTATYFCAHRNSGWSLKFDSWGQGSLVTVSA
VL: DIQMTQSPSSVSASVGDRVTITCRARQGISSWLVWYQQKPGKAPKLLIFGASSLQSGVPSRFNASGTGTEFTLTISSLQPEDFATYYCQQADSFPITFGQGTRLEIK
B13: antibody 331 (antibody, V domains shown)
V domain 1: QITLKESGPTLVKPTETLTLTCSFSGFSLTKTGEAAGWIRQAPGRALEWVTVIFWDDDKRYSPSLQNRISVTKDTSKNQVVLRMTNVARFDTGTYFCWAMGGPGKEYFGQGTLVAVSS
V domain 2: QSVLTQPPSVSGAPGQRVTISCTGTSSSIGPYSDVHWYQHVSGKAPRLLIFGNSNRPSGVPDRFSGSKSGTSASLVIAGLQAEDEADYYCQSYDSSLGEIYVFGTGTTVTVL
B14: antibody 339 (antibody, V domains shown)
V domain 1: QITLKESGPTLVKPTETLTLTCSFSGFSLTRTGEAAGWIRQAPGRALEWVTVIFWDDDKRYSPSLQSRLTVTKDTSKNQVVLTMTNVARFDTATYFCWAMGGPGKEYFGQGTQVAVSS
V domain 2: QSVLTQPPSVSGAPGQRVTISCTGTSSSIGPYSDVHWYQHVSGKAPRLLIFGNSNRPSGVPDRFSGSKSGTSASLVIAGLQAEDEADYYCQSYDSSLGEIYVFGTGTTVTVL
B15: antibody 317 (antibody, V domains shown)
VH: QVQLVQSGAEVKKPGASVKVSCKVSGYTLTELSMHWVRQAPGKGLEWMGGFDPEDGETIYAQKFQGRVTMTEDTSTDTAYMELSSLRSEDTAVYYCASSPAAAGTSQYYYYYGMDVWGQGTTVTVSS
VL: not shown
B16: antibody 329 (antibody, V domains shown)
VH: EVQLVESGGGLVQPGGSLRLSCAASGFTFSSYWMHWVRQAPGKGLVWVSRINSDGSSTSYADSVKGRFTISRDNAKNTLYLQMNSLRAEDTAVYYCAREGIVATITLDYWGQGTLVTVSS
VL: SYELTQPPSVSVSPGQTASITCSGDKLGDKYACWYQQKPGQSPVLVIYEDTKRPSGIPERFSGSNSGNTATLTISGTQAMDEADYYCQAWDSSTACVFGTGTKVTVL

biological target: SARS-CoV spike protein (full-length trimeric, on beads) (SARS-CoV, UniProt P59594 14-1190)

Question: How did the “bead binding signal, fold over isotype control” value (“bead binding signal, fold” below) turn out when B1 was run?
Answer: Its value is 1.04 fold over isotype.

Question: For B2, which “bead binding signal, fold” value is on record?
Answer: The value was 1.23 fold over isotype.

Question: With B3 as the binder, how does the “bead binding signal, fold” value read?
Answer: The value was 1.03 fold over isotype.

Question: How did the “bead binding signal, fold” value turn out when B4 was run?
Answer: The value was 1.21 fold over isotype.

Question: With B5 as the binder, how does the “bead binding signal, fold” value read?
Answer: The value was 1.03 fold over isotype.

Question: B6 was tested. Which “bead binding signal, fold” value did it give?
Answer: Its value is 1.11 fold over isotype.

Question: Which “bead binding signal, fold” value does the source give for B7 here?
Answer: The value was 1.2 fold over isotype.

biological target: SARS-CoV-2 full length spike protein (wild type) (SARS-CoV-2, UniProt P0DTC2 14-1208)

Question: Which “median fluorescence intensity fold over isotype” value does the source give for B8 here?
Answer: Its value is 442 fold over isotype control.

Question: For B9, which “median fluorescence intensity fold over isotype” value is on record?
Answer: Its value is 413 fold over isotype control.

Question: How did the “median fluorescence intensity fold over isotype” value turn out when B10 was run?
Answer: Its value is 1200 fold over isotype control.

Question: Which “median fluorescence intensity fold over isotype” value does the source give for B11 here?
Answer: Its value is 994 fold over isotype control.

Question: How did the “median fluorescence intensity fold over isotype” value turn out when B12 was run?
Answer: The value was 193 fold over isotype control.

Question: Which “median fluorescence intensity fold over isotype” value does the source give for B13 here?
Answer: Its value is 850 fold over isotype control.

Question: How did the “median fluorescence intensity fold over isotype” value turn out when B14 was run?
Answer: Its value is 874 fold over isotype control.

Question: Which “median fluorescence intensity fold over isotype” value does the source give for B15 here?
Answer: The value was 890 fold over isotype control.

Question: With B16 as the binder, how does the “median fluorescence intensity fold over isotype” value read?
Answer: Its value is 497 fold over isotype control.
